Assay results from article PMC5428714, “The structures of a naturally empty cowpea mosaic virus particle and its genome-containing counterpart by cryo-electron microscopy” (Scientific Reports, 2017).

Legend:
[1] = target: T1, Cowpea mosaic virus (CPMV) Large (L) coat protein (Cowpea mosaic virus, UniProt P03599 460-833); test: cryo-EM structure; purified CPMV-T particles (naturally empty capsid assembled in planta), ~1.92 mg/ml, vitrified at 4 °C; icosahedral (I3) symmetry imposed; 4.25 Å; settings: both partners purified
T1 construct: Large (L) coat protein of Cowpea mosaic virus, cut from the RNA-2-encoded precursor polyprotein (VP60) by the 24 K viral proteinase; numbers count on: the mature L subunit; 60 copies each of L and S form the icosahedral capsid; also called L subunit; large coat protein subunit; source: for the cleaved eVLP map: recombinant eVLP from transient expression of VP60 and the 24 K protease
T1 sequence: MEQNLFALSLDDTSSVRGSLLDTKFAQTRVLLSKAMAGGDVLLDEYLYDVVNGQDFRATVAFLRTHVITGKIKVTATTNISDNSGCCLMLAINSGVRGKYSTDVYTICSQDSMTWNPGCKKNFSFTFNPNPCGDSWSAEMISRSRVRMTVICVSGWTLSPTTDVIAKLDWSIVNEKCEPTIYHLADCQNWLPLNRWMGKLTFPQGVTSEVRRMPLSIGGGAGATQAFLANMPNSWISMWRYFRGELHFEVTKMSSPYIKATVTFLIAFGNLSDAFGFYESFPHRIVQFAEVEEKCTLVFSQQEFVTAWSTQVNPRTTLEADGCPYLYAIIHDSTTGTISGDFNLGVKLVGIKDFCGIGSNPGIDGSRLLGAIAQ

[2] = target: the molecule itself; test: as above

B1: Cowpea mosaic virus (CPMV) Small (S) coat protein with the C terminal extension (as in CPMV-T) (natural protein)
chain: GPVCAEASDVYSPCMIASTPPAPFSDVTAVTFDLINGKITPVGDDNWNTHIYNPPIMNVLRTAAWKSGTIHVQLNVRGAGVKRADWDGQVFVYLRQSMNPESYDARTFVISQPGSAMLNFSFDIIGPNSGFEFAESPWANQTTWYLECVATNPRQIQQFEVNMRFDPNFRVAGNILMPPFPLSTETPPLLKFRFRDIERSKRSVMVGHTATAA
notes: Small (S) coat protein of Cowpea mosaic virus, cut from the RNA-2-encoded precursor polyprotein (VP60), with the 24 amino acid C terminal extension kept; density to Thr184 and from Pro188 to Ile197; numbers count on: the mature S subunit; Naturally empty particles are cleaved more slowly and keep the C-terminus for longer; residues after Ile197 are not seen in the map; also called S subunit; …
B1: binds [1]; binds [2].
